Assay results reported in patent US20090324700A1, “METHODS AND COMPOSITIONS FOR THE INHIBITION OF CATHEPSINS” (priority 2003, published 2009).
Where “and” joins values, the source holds several entries; their conditions need not be identical. Equal entries are not always repeated.

Experiments:
RelA^−/− MEFs [1] = assay: Survival assay, sphingosine, RelA^−/− MEFs; format: cell-based, mouse; conditions: sphingosine 10-50 μM, 2 h; FIG. 7B
Method: Survival Assays. Although RelA^−/− MEFs are markedly more sensitive to TNF-α compared to RelA^+/+ MEFs, low levels of CHX (0.1 μg/ml) were used in the survival assays. This was to suppress any protective activity of constitutively active non-RelA NF-κB molecules that are present in RelA^−/− MEFs (FIG. 4). Thus, RelA^−/− MEFs were treated with CHX and TNF-α (R&D) and the number of live GFP-positive adherent cells was counted by flow cytometry after 16 h, if not indicated otherwise. Live cells were defined as those that excluded propidium iodide (PI-negative) and had the appropriate size, as defined by forward and side scatter characteristics (Coligan et al., 1995). For RelA^+/+ MEFs, TNF-α-cytotoxicity was determined after 16 h with CHX (10 μg/ml), if not indicated otherwise. Cathepsin B activity was inhibited by a 1 h pre-treatment of MEFs with CA-074 Me (30 μM) (Peptide Institute). […] RelA^−/− MEFs were treated with (10-50 μM) sphingosine (Calbiochem) and the number of live GFP-positive adherent cells was counted by flow cytometry after 2 h.

LCMV-specific CD8 cells = conditions: mouse, in vivo
NF-κB = NF-κB activation, EMSA, RelA^−/− MEFs; format: cell-based, mouse; conditions: TNF-α stimulation
Method: The possibility that Spi2A protects from TNF-α-induced apoptosis by directly activating NF-κB was examined. Therefore, using electrophoretic mobility shift assays (EMSAs), studies were conducted to determine whether Spi2A itself promotes NF-κB activation in nuclei from Rel A^−/− MEFs transduced with Spi2A or whether the abrogation of Spi2A mRNA up-regulation by Spi2A antisense message inhibits NF-κB activation in Rel A^+/+ MEFs. […] In Rel A^+/+ MEFs, super-shift analysis confirmed the induction of p50/Rel A by TNF-α. […] Thus, the anti-apoptotic activity of Spi2A is unlikely to be mediated through the modulation of NF-κB activation.

human cathepsin H = biological target: T1, human cathepsin H (Homo sapiens, UniProt P09668); assay: Protease specificity of Spi2A: cathepsin H; format: biochemical; conditions: protease 20 nM, Spi2A 200 nM, 1 h at 37° C; FIG. 6B
T1 construct: purchased Calbiochem or Athens Research and Technology
T1 sequence (P09668 98-335): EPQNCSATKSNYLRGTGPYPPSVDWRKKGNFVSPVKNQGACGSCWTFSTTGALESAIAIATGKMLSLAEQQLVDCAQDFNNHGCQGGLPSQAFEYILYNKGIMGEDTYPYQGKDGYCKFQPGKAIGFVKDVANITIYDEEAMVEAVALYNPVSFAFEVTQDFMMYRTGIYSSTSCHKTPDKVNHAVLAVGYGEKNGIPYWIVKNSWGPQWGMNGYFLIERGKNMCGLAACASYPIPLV
Method: (§1) Protease specificity of Spi2A. RelA^−/− MEFs were transduced with retrovirus encoding Spi2A with a C-terminal 3×FLAG epitope tag and Spi2A-3×FLAG purified using a method described previously (Cooley et al., 1998). Briefly, cells (3×10^9) were lysed and Spi2A-3×FLAG (75 μg) purified by batch Q-Fast Flow ion-exchange chromatography (Pharmacia Biotech) after elution at 160-220 mM NaCl followed by anti-FLAG antibody columns, performed according to manufacturer's instructions (Sigma-Aldrich). Spi2A-3×FLAG was dialysed into PBS and stored as aliquots at −80° C. until needed.
(§2) Proteases were purchases from the manufacturers (Calbiochem or Athens Research and Technology) except granzymes A and B which were purified as described (Hanna et al., 1993) and cathespin V and K, which were purified as described (Bromme et al., 1999; Linnevers et al., 1997). Proteases (20 nM) were incubated in the appropriate assay buffer with Spi2A at 200 nM (at least 10-fold excess of inhibitor to maintain pseudo-first order conditions) for 1 h at 37° C. Control samples included only the enzyme, without the inhibitor. At the end of 1 h protease activity was assayed. […] Substrate hydrolysis was measured in a fluorescence microtiter plate reader (Spectramax Gemini XS, Molecular Devices). Percentage inhibition was calculated from the residual enzyme activity compared to no Spi2A controls. […]

RelA^−/− MEFs [2] = assay: Survival assay, TNF-α and CHX, RelA^−/− MEFs; format: cell-based, mouse
human cathepsin K = biological target: T2, human cathepsin K (Homo sapiens, UniProt P43235); assay: Protease specificity of Spi2A: cathepsin K; format: biochemical; conditions: protease 20 nM, Spi2A 200 nM, 1 h at 37° C; FIG. 6B
T2 construct: made in house
T2 sequence (P43235 115-329): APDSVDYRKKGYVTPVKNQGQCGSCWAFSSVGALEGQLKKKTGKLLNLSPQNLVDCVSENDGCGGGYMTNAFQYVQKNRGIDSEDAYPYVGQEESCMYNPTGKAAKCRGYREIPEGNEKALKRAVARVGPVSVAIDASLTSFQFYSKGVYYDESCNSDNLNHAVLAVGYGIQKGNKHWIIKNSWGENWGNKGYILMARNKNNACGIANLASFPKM
Method: as §1, §2

human cathepsin V = biological target: T3, human cathepsin V (Homo sapiens, UniProt O60911); assay: Protease specificity of Spi2A: cathepsin V; format: biochemical; conditions: protease 20 nM, Spi2A 200 nM, 1 h at 37° C; FIG. 6B
T3 construct: made in house
Method: as §1, §2

caspase 8 = biological target: T4, caspase 8 (Homo sapiens, UniProt Q14790); assay: Protease specificity of Spi2A: caspase 8; format: biochemical; conditions: FIG. 6B
T4 construct: purchased Calbiochem or Athens Research and Technology
Method: as §1, §2

[3] = system: CD8 cells and B lymphocytes in PBLs; assay: Generation of bone marrow chimeras transduced with retrovirus: engraftment of CD8 cells and B lymphocytes in PBLs; format: in vivo, mouse; conditions: 8 weeks after bone-marrow transfer, before infection; vs GFP mice
[4] = system: anti-LCMV memory CD8 cells; conditions: mouse, in vivo

T4 sequence (Q14790 217-374 limits assumed, species assumed): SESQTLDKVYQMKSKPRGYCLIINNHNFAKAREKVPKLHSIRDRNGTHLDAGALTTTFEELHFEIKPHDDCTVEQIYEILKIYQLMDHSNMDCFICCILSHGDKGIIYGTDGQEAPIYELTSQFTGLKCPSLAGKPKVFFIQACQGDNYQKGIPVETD
T4 sequence (Q14790 385-479 limits assumed, species assumed): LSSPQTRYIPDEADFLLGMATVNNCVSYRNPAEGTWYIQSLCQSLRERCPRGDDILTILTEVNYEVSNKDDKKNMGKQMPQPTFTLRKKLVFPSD
T3 sequence (O60911 114-334): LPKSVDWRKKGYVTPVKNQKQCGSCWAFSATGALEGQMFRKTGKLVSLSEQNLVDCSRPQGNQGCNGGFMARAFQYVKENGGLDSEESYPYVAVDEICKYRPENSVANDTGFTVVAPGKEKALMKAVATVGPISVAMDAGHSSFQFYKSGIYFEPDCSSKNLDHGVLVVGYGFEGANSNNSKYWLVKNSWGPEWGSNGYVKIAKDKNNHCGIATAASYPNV

B1: Spi2A: murine Spi2A polypeptide, SEQ ID NO:2; purified as C-terminal 3×FLAG protein or expressed from MIGR1 retrovirus in cells and bone-marrow chimeras (protein, listed as Mus musculus)
chain: MAGVSPAVFGCPDVTLGRNTAVREVQENVTSVDSLTLVSSNTDFAFSLYRKLVLKNPDENVVFSPFSICTALALLSLGAKSNTLKEILEGLKFNLTETPEPDIHQGFRYLLDLLSQPGNQVQISTGSALFIEKHLQILAEFKEKARALYQAEAFTADFQQPLKATKLINDYVSNHTQGKIKELISGLKESTLMVLVNYIYFKGKWKNPFDPNDTFKSEFYLDEKRSVIVSMMKTGYLTTPYFRDEELSCTVVELKYTGNASAMFILPDQGRMQQVEASLQPETLRKWKNSLKPRMIHELRLPKFSISTDYSLEHILPELGIREVFSTHADLSAITGTKDLRVSQVVHKAVLDVAEKGTEAAAATGMAGVGCCAVFDFLEIFFNRPFLMIISDTKAHIALFMAKVTNPERSTNFPNGEGASSQRLESKRLCFGDPLCLIGQ
modifications: C-terminal 3xFLAG tag
notes: purified as C-terminal 3×FLAG protein or expressed from MIGR1 retrovirus in cells and bone-marrow chimeras
- Protection from death after treatment with sphingosine (RelA^−/− MEFs [1]): could protect
- Anti-LCMV CD8 cells as a percentage of the total GFP^+ CD8^+ cell population in PBLs (LCMV-specific CD8 cells): significantly elevated
- Level of anti-LCMV CD8 cells during the contraction phase (LCMV-specific CD8 cells): considerable increase
- Level of anti-LCMV CD8 cells during the initial expansion phase (LCMV-specific CD8 cells): did not increase
- Level of anti-LCMV CD8 cells during the memory phase (LCMV-specific CD8 cells): elevated level
- Residual level of anti-LCMV CD8 cells (level 56 days after infection as percentage of the maximum on day 14) (LCMV-specific CD8 cells): significantly (p<0.001) higher
- Residual level of anti-LCMV CD8 cells (level after 98 days as percentage of the maximum after 14 days) (LCMV-specific CD8 cells): significantly higher
- Time for which the elevated memory-phase level was stable (LCMV-specific CD8 cells): at least 14 weeks
- Expression of NF-κB complexes (p50/p50, p50/Rel) in nuclei (NF-κB): did not affect
- Inhibition of protease by Spi2A (percentage inhibition) (human cathepsin H): extended to all of the lysosomal, papain-like proteases that were examined
- Protection at low concentrations of TNF-α (RelA^−/− MEFs [2]; 0.5 ng/ml TNF-α, FIG. 2B): virtually complete
- Percentage survival after TNF-α and CHX, retrovirally transduced cells vs GFP (RelA^−/− MEFs [2]; 16 h, CHX 0.1 μg/ml, FIG. 1B, 2B): markedly improved survival
- Protection at high concentrations of TNF-α (RelA^−/− MEFs [2]; after 16 hours, FIG. 2B): dramatic
- Inhibition of protease by Spi2A (percentage inhibition) (human cathepsin K): extended to all of the lysosomal, papain-like proteases that were examined
- Inhibition of protease by Spi2A (percentage inhibition) (human cathepsin V): extended to all of the lysosomal, papain-like proteases that were examined
- Inhibition of protease by Spi2A (percentage inhibition) (caspase 8): did not extend to any of the caspases tested
- Percentage of CD8 cells in transduced (GFP-positive) PBLs [3]: no difference
- Number of anti-LCMV CD8 cells per spleen GFP^− [4]: 5.07 ± 0.68 (n = 3) ×10^−5 and 2.79 ± 0.12 (n = 6) ×10^−5
- Percentage and absolute number of anti-LCMV memory CD8 cells (IFN-γ^+ CD8^+) in the spleen [4]: increased
